For the experiment, the target named is biotinylated His-Avi-TEAD (194-411) (UniProt P28347). Nature of the experiment: SPR, biotinylated TEAD immobilized on the chip, Siderocalin-YAP as analyte.

pKd: −log10 of the molar value.

Chain of Siderocalin-fused YAP (50-171) (P80188 other isoform, or with tags, fused parts or gaps): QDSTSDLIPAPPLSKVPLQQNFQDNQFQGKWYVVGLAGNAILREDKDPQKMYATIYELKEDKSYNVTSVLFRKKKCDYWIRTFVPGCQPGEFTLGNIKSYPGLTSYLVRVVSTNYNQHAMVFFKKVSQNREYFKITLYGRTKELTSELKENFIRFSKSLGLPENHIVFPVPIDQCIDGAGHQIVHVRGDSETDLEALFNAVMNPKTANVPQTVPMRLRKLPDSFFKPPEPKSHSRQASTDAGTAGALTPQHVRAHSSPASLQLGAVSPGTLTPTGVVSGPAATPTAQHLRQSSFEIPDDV

The term pKd denotes the Kd on a negative log10 scale, so that one unit is a factor of ten. A low value points to a large Kd. For the substance “Siderocalin-fused YAP (50-171) (from UniProt P80188 21-198; P46937 50-171)”, the pKd was 6.24.

The values are drawn from patent publication US20230151068A1.
